Reference: the supplement of paper PMC9170038

Tested on: MS2 coat protein
Test: apparent KD of MS2 coat protein; higher = weaker reporter binding
Settings: Eterna round: R107
Method in brief: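 Designed RNA switches were transcribed on-chip from Illumina sequencing clusters. They were then titrated with SNAP-549-labelled MS2 coat protein (twofold steps, 0.7 or 1.5 nM to 3 µM; 0.8–1.5 h to 10–20 min per step) in 100 mM Tris-HCl pH 7.5, 80 mM KCl, 4 mM MgCl2, without or with constant ligand. Apparent KD is the per-design median of normalised cluster binding-curve fits.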

[1] = input ligand: theophylline 20 uM
[2] = input ligand: theophylline 2 mM
[3] = input ligand: tryptophan 2.4 mM

Row | Sequence | apparent KD of MS2 coat protein (input ligand: arginine 13.2 mM) [nM] | apparent KD of MS2 coat protein (input ligand: none) [nM] | apparent KD of MS2 coat protein [1] [nM] | apparent KD of MS2 coat protein [2] [nM] | apparent KD of MS2 coat protein [3] [nM]
1 | UCAGGAAGAGCGGCCGCCACUGUUUGGCAUGCGGAUGAAGGAACAUGAGGAUCACCCAUGUAGAUUAGGACCGGGCUUGCGGAGA [szeemullin] | 20.9 | 13.7 | 24.2 | 19.4 | 12.6
2 | UCAGUGGGUUCGGCCGCCACUUGAGUGAUGGUGCCUCAAUAAGUCUACAUGAGGAUCACCCAUGUAAGGACCGGGAAUUUUAUGG [theeternabot_exclusion_MS2_Trp_B_19] | 33.3 |  | 59.1 | 43.2 | 
3 | UCAUAAGUACCGGUCCUCAGAUCCUCAUGACGAGGACCGGUACGGCCGCCACUCGAAACAUGAGGAUCACCCAUGUAAUAACAUU [Brourdmod23] | 19.5 |  | 28.4 | 26.1 | 
4 | UCAUACAUGAGGAUCACCCAUGUUCGUGGGCGAGGACCGGUACGGCCGCCACUCGUACUAACGGUUUCUUAAACUUCCUUUCGAG [theeternabot_sameState_MS2_Trp_A_49] | 28.3 |  | 41.2 | 40.4 | 
5 | UCAUUGAGAGUCAUCCAGCGUUAAUGGGAUACCAGAGUUCUUUUACUCCCUUGGCAGCCCGGAACAUGAGGAUCACCCAUGUCUG [theeternabot_exclusion_MS2_Theo_A_39] | 16.7 |  | 44.7 |  | 31.8
6 | UCGCGAGAGGGAAGGAGCGUCAGCUGAGUCACAUGAGGAUCACCCAUGUCGCACAUAGUGUGACAGGUAGGUCGCCCUCCGCCCU [Leinticees] | 99.6 | 134 | 248 | 192 | 157
7 | UCGCUCGCCGGAAGGCGAGCGAGUUGCGAUACCAGCCCGGAAACGGGCCCUUGGCAGCGCACAUGAGGAUCACCCAUGUCAUGUU [#1 Exclusion - Theophylline A Attempt #6 (HarryS)] | 24.3 |  | 27.5 |  | 18.3
8 | UCGCUCUGGGUGAAAUCCGGAGAUGUGGAAGGAGCGCUCGAAAGAGCAGGUAGGUCGCCAACGGACAUGAGGAUCACCCAUGUAC [Same State - Arginine A (Freestyle 20)] | 31 | 29.6 | 50 | 75.3 | 38.3
9 | UCGCUCUGGGUGAGAUCCGGAGAUGUGGAAGGAGCGCUGGUUCCAGCAGGUAGGUCGCCAACGGACAUGAGGAUCACCCAUGUAC [Same State - Arginine A (Freestyle 13)] | 39.2 | 51.7 | 63.1 | 70.4 | 45.9
10 | UCGGACAUGAGGAUCACCCAUGUAAAUCCUCGAGGACCGGUACGGCCGCCACUCGAACGAGUGGCGCGCGAGCGCGCGCUCGCGC [aGa] | 20.4 | 43.8 | 67.7 | 62.5 | 36.9
11 | UCGGGAACAUGAGGAUCACCCAUGUCAGAAGGAGCGCUGAGAGAAGCAGGUAGGUCGCUGACGUAGGAGCUCUCUUCCUAUACGC [Exclusion - Arginine A] | 23.3 | 30.6 | 40.1 | 35.4 | 25.4
12 | UCGGGCAGAGCGGCCGCCACUGUUUGGCGUGCGGAUGAAGGAACAUGAGGAUCACCCAUGUUGAUUAGGACCGGGCUUGCGGAGA [kklmullin] | 12.6 | 17.1 | 27 | 17.4 | 16.7
13 | UCGUGUGUUUCGGAUACCAGUGUGGUCGAUACAUGAGGAUCACCCAUGUGAGAGGAGGUACACCCUUGGCAGCUGGCUGUUGCGG [qqwmullin] | 39.7 |  | 82 |  | 77.5
14 | UCGUUAUGGUCGGCCGCCACUCGCGGAGAGCAUAGCUCAAACAUGAGGAUCACCCAUGUAUCAUGGAGGACCGGGACCAUAACGU [Rxmullin variation #StaticStem] | 30 |  | 46.1 | 42.7 | 
15 | UCGUUUUAGUCGGCCGCCACUGUAUGCAUGUUUAACAUGAGGAUCACCCAUGUCCCGUACUAUAACAGGACCGGGACGUAAUAGA [JR_SSTryptoB_Sub006] | 112 |  | 207 | 936 | 
16 | UCUAGGCUCGGAAACGAGCCUAGUACAGAAGGAGCGUGGAUUAACACAGGUAGGUCGCUGACAUGAGGAUCACCCAUGUAUUAUU [SSAA #3] | 32.5 | 24.3 | 38 | 31 | 27.7
17 | UCUCGGUCUUUCUUUCUCCGAGAAUAUGAUACCAGUUAGUUUUAUGGCCCUUGGCAGCAUAGAACAUGAGGAUCACCCAUGUGUU [SSThA NP+V+V2 #9 +-Same Structure] | 48.1 |  | 114 |  | 96.5
18 | UCUGGGUCCGCAAGGACCUGGAGUUGCGAUACCAGCACGGUAACGUGCCCUUGGCAGCGCACAUGAGGAUCACCCAUGUGGUGUU [#1 Exclusion - Theophylline A Attempt #17 (HarryS)] | 86.6 |  | 365 |  | 204
19 | UCUUGAGUUUCGGAUACCAGUGAUGUCGAUACAUGAGGAUCACCCAUGUUAGAGGAUGUACACCCUUGGCAGCCGGGUGUGGCGG [wswmullin] | 25.1 | 36 | 42.1 | 27.5 | 44.9
